Experimental data as given in publication PMC10593839, “The liver microenvironment orchestrates FGL1-mediated immune escape and progression of metastatic colorectal cancer” (Nature Communications, 2023).

Molecular target: T1, recombinant hLAG-3 (lymphocyte activating 3) (human, UniProt P18627 23-450)
T1 construct: Bought recombinant protein; source: bought: ABclonal Technology
T1 sequence (looked up): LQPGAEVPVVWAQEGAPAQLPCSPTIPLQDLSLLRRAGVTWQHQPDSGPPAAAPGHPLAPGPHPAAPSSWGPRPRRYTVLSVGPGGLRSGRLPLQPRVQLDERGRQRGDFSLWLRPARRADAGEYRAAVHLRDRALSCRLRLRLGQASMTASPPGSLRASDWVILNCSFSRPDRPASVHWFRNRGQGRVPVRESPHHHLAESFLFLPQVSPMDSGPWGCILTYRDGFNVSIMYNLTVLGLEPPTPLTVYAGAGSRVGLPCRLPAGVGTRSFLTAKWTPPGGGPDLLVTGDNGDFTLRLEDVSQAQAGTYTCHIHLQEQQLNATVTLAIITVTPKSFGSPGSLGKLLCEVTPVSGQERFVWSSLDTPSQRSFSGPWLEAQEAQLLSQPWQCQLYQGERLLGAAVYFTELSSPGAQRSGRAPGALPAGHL
Experiment: ELISA; recombinant hLAG-3 (1 μg/mL) coated on ELISA microwells; different amounts of recombinant hFGL1 incubated for 1 h; detected with HRP-conjugated anti-hFGL1 antibody, OD 450 nm
Conditions: both partners purified

binding result: binds
B1: recombinant hFGL1 (fibrinogen-like protein 1) (ligand, human, UniProt Q08830 23-312, looked up)
chain: LEDCAQEQMRLRAQVRLLETRVKQQQVKIKQLLQENEVQFLDKGDENTVIDLGSKRQYADCSEIFNDGYKLSGFYKIKPLQSPAEFSVYCDMSDGGGWTVIQRRSDGSENFNRGWKDYENGFGNFVQKHGEYWLGNKNLHFLTTQEDYTLKIDLADFEKNSRYAQYKNFKVGDEKNFYELNIGEYSGTAGDSLAGNFHPEVQWWASHQRMKFSTWDRDHDNYEGNCAEEDQSGWWFNRCHSANLNGVYYSGPYTAKTDNGIVWYTWHGWWYSLKSVVMKIRPNDFIPNVI
notes: fibrinogen-like protein 1 (FGL1), human, recombinant; Bought recombinant protein; also called HFREP1; source: bought: ABclonal Technology
